The text below walks through data of article PMC5076370.

In assay [1] the target is GoxA precursor protein lacking CTQ (Marinomonas mediterranea). In words: SEC.
Assay [2] addresses active GoxA with mature CTQ (Marinomonas mediterranea). As to the kind of experiment: SEC. (In general: In gel filtration, larger molecules generally elute earlier.)

Turning to GoxB (enzyme), the stoichiometry N (GoxB per GoxA precursor) in assay [1] is 1.
As usually defined, the stoichiometry N is a count of units in the complex or per binding partner. Regarding active GoxA with mature CTQ (enzyme), the stoichiometry N in assay [2] is 2.
